Measurements taken from article PMC12433258, “Binding Differences of the Peptide‐Substrate–Binding Domain of Collagen Prolyl 4‐Hydroxylases I and II for Proline‐ and Hydroxyproline‐Rich Peptides” (Proteins, 2025).

Key:
[1] = target: PSB‐II^142–236 construct (peptide‐substrate–binding domain of the α‐II subunit of human collagen prolyl 4‐hydroxylase II) (human) (UniProt O15460); experiment: ITC; 3 mM peptide titrated into 50 μM PSB‐II in the cell; 20 mM Tris, 50 mM NaCl, 50 mM glycine, pH 8.0; 25°C; one‐set‐of‐sites model with fixed stoichiometry (n = 1); three measurements
PSB‐II^142–236 construct (peptide‐substrate–binding domain of the α‐II subunit of human collagen prolyl 4‐hydroxylase II) (human), sequence (O15460 163-257): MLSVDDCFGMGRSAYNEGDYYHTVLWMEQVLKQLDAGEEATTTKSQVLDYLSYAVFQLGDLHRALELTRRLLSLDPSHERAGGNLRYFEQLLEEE

[2] = target: PSB‐I^143–238 construct (peptide‐substrate–binding domain of the α‐I subunit of human collagen prolyl 4‐hydroxylase I) (human) (UniProt P13674); experiment: ITC; 3 mM peptide titrated into 50 μM PSB‐I^143–238 in the cell; 20 mM Bis‐Tris, 100 mM glycine, pH 6.8; 25°C; one‐set‐of‐sites model with fixed stoichiometry (n = 1); three measurements
PSB‐I^143–238 construct (peptide‐substrate–binding domain of the α‐I subunit of human collagen prolyl 4‐hydroxylase I) (human), sequence (P13674 160-255): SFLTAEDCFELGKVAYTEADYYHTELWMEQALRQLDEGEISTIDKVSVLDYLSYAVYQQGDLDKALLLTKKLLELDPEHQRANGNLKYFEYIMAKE

POG‐PAG‐POG peptide
Kd [1]: 26.2 µM
Kd [2]: 79.6 µM
dH [2]: -53.1 kJ/mol
